This is an account of results in patent US12037418B2, “Hydrogel-forming peptides, and methods of use thereof” (Nanyang Technological University, priority 2020, dated 2024).

Series [1] in a line: Peptide gelation (incubation, OD 550 nm, inverted tube). It is filed as physicochemical. The settings on record: for self-assembly behaviour observed over time / gel formation in water: DI water; for self-assembly behaviour observed over time: up to 40 h; for gel formation in water: C-terminus Val mutated. The protocol:
UV-Vis spectroscopy: The peptides were dissolved in DI water at the respective concentrations and 100 μL was aliquoted into each well of a 96-well microtiter plate, with a minimum of 3 wells per condition. UV-Vis absorbance measurements at 550 nm were recorded on a Tecan infinite M200 Pro microplate reader at intervals of 30 min for the first 16 hours and subsequently at increased time intervals.
Peptide hydrogel (GV8): GV8 peptide was dissolved in DI water at the desired concentration (between 10 and 20 mM) and incubated at ambient temperature of 23° C. to 25° C. for at least 12 hours. For active agent encapsulation, GV8 hydrogels were prepared at concentrations of 20 mM to 50 mM with 1% Dimethylsulfoxide (DMSO) added per 10 mM of peptide in PBS with a pH range of 7.2 to 7.4 to form GV8 precursors, which gelate in a sealed environment under ambient temperature of 23° C. to 25° C. with a typical gelation time ranging from 5 h to 9 h (FIG. 1), depending on the concentration of the GV8 precursor. The GV8 precursors were prepared in various types of buffer solutions—such as DI water, Dulbecco's Modified Eagle's medium (DMEM), sodium acetate buffered solution with a pH range of 4 to 5, and/or buffered solutions with a pH ranging from pH 4 to 7.4.
Peptide hydrogel (GI8): GI8 peptide was dissolved in DI water at the desired concentration (between 10 and 20 mM) and incubated at ambient temperature of 23° C. to 25° C. for at least 12 hours. GI8 hydrogels were prepared at concentrations of 20 mM to 50 mM with or without 1% Dimethylsulfoxide (DMSO) added per 10 mM of peptide in PBS with a pH range of 7.2 to 7.4 to form GI8 precursors, which gelate in a sealed environment under ambient temperature of 23° C. to 25° C. with a typical gelation time ranging from 2 h to 7 h (FIG. 1), depending on the concentration of the GI8 precursor. The GI8 precursors were prepared in various types of buffer solutions—such as DI water, Dulbecco's Modified Eagle's medium (DMEM), sodium acetate buffered solution with a pH range of 4 to 5, and/or buffered solutions with a pH ranging from pH 4 to 7.4. […]

Another series relates to topical puncture wounds. Description: In vivo wound healing assay, hydrogels applied to topical puncture wounds. On the set-up: species or system mice. The settings on record: especially at initial stages (0 d to 2 d), n=3. On the procedure:
In vivo assay: To investigate the wound healing property of the hydrogels, 30 μL GV8 and GV8+ hydrogels loaded with 200 μg/mL ADMSC secretome were applied to topical puncture wounds on non-diabetic mice models, and monitored for a period of 2 d, 5 d and 7 d at various points in time. Representative wounds have been presented in FIG. 26, illustrating the healing of untreated (blank) and treated wounds over 7 d.

For series [2] the following is noted: in the presence of Mg2+; cited from earlier work.
Series [3] is described as follows: Nanoindentation of GL8 beads. It is filed as physicochemical.

For the substance Ac-GLYGGYGI-NH2 [GI8], in series [1] (10 mM peptide in water, inverted tube test), the “incubation time to hydrogel formation” value is 1 h. Also, in series [1], the “self-assembly behaviour observed over time” value is given as “remained in solution with some gel-like formation observed overtime”.

For Ac-GLYGGYGV-NH2 [GV8], in the series with topical puncture wounds, the “effect on wound closure versus control wounds” value is “promoted and accelerated wound closure”. Further, the “minimal critical gelation concentration (cgc)” value in series [1] (in water) worked out at 10 mM.

In the case of E2(SL)6E2GRGDS, the “storage modulus (G′)” value in series [2] is “about 480 Pa”. As for “GA8: Ac-GLYGGYGX-NH2 (SEQ ID NO: 11) peptide, C-terminus Val residue mutated to Ala (Ac-GLYGGYGA-NH2)”, the “gel formation in water” value in series [1] is “not able to form gels in water”.

As to “GF8: Ac-GLYGGYGX-NH2 (SEQ ID NO: 11) peptide, C-terminus Val residue mutated to Phe (Ac-GLYGGYGF-NH2)”, in series [1], the “gel formation in water” value is reported as “not able to form gels in water” and the “self-assembly behaviour observed over time” value was “remained in solution with some gel-like formation observed overtime”. Consider “GK8: Ac-GLYGGYGX-NH2 (SEQ ID NO: 11) peptide, C-terminus Val residue mutated to Lys (Ac-GLYGGYGK-NH2)”, for which the “gel formation in water” value in series [1] is listed as “not able to form gels in water”. Consider “GL8: Ac-GLYGGYGX-NH2 (SEQ ID NO: 11) peptide, C-terminus Val residue mutated to Leu (Ac-GLYGGYGL-NH2)”, for which, in series [1], the “gel formation in water” value was “not able to form gels in water”; the “self-assembly behaviour observed over time” value is “self-assembled into large (mm-size) and stiff beads”. For the same substance, the “Young's modulus, dried” value in series [3] (dried condition) is 8.34 GPa. Further, the “Young's modulus, hydrated” value in series [3] (hydrated condition) worked out at 3.03 GPa. As to “GS8: Ac-GLYGGYGX-NH2 (SEQ ID NO: 11) peptide, C-terminus Val residue mutated to Ser (Ac-GLYGGYGS-NH2)”, the “gel formation in water” value in series [1] was “not able to form gels in water”.
